According to patent US20130071431A1, “Method for Preserving Polypeptides Using A Sugar and Polyethyleneimine” (Stabilitech Ltd., priority 2008, published 2013):

Legend:
[1] = Luciferase assay with luciferin reagent, freeze-dried with BSA (Example 10); type: biochemical
Protocol: Luciferase stock was purchased from Promega Corporation (code E1701) and consisted of 1 mg of purified protein at a concentration of 13.5 mg/ml, correlating to 2.13×10^−4M using an approximate molecular weight of 60 kDa. The stock was thawed and refrozen (untouched, without addition of any excipients) at −45° C. as 44 aliquots. These aliquots were subsequently used for all experiments.
Luciferin was purchased from Promega Corporation as a kit that also included ATP (code E1500). This kit shall henceforth be referred to as luciferin reagent and consisted of pairs of vials that required mixing before use. One vial contained a lyophilised powder and the other 10 ml of a frozen liquid. To produce stocks, these vials were mixed and then refrozen as 1 ml aliquots at −20° C. in standard 1.5 ml Eppendorf tubes. Vials and reconstituted luciferin reagent were stored at −20° C. in an opaque box and only removed under conditions of near-darkness. […]
The luciferase assay involved the mixing of various concentrations of luciferase with an undiluted aliquot of luciferin reagent in black opaque 96 well plates. The initial (linear) phase of this luminogenic reaction was then immediately quantified by a luminometer. As per the manufacturer's recommendation, luciferase samples were of a 100 μl volume and luminescence was initiated by addition of 100 μl of luciferin reagent. […]

[2] = Luciferase luminescence assay after freeze-drying (Example 4); type: biochemical; conditions: freeze-dried in excipient of 1.092M sucrose, 0.0499M stachyose and 27 nM, 2.7 nM or 0.27 nM PEI
Protocol: The final concentrations of PEI and sugars were: • PEI: 27 nM, 2.7 nM or 0.27 nM • sucrose: 1.092 M, and • stachyose: 0.0499M.
All vials were set up in triplicate.
The vials contained a free-flowing freeze-dried powder. The powder was reconstituted by adding 1 ml PBS. […] Luciferase assay reagent was added to each well according to manufacturer's instructions and luminescence was read on a Synergy 2 luminometer.

With “Luciferase: luciferase enzyme purchased from Promega (code E1701 in Example 10)” the “lyoprotectant effects of sugar mix and PEI on luciferase activity” value ([1]; both added together before freeze-drying) was “synergistic”, the “lyoprotectant contribution of excipient component on luciferase activity” value ([1]; sugar mix or PEI added after freeze-drying) was “wholly negates its contribution” and the “thermal stability of luciferase (luminescence)” value [2] was “improved thermal stability”.
